Measured values published in patent publication US20120321557A1 (FORERUNNER PHARMA RESEARCH, published 2012).

Assays:
[1] = target: T1, human ICAM1 (human, UniProt P05362 28-532); assay: FACS on ICAM1-expressing BaF3 transfectant, anti-mouse IgG-FITC detection
T1 construct: also called ICAM1/BaF3 (cells that carry it)
Method: (§1) Next, using these cell lines thus established, the cross-reactivity of IB23 with the ICAM family was analyzed. Each 10 μg/ml of the IB23 antibody, an anti-human ICAM1 antibody (R&D Systems, Inc., #BBA3), and an anti-human ICAM5 antibody (R&D Systems, Inc., #MAB1950) were reacted with ICAM1/BaF3 and ICAM5/BaF3. Then, after staining with an anti-mouse IgG-FITC antibody (Beckman Coulter #IM0819), the binding of each antibody was analyzed by FACS (Becton, Dickinson and Company).

[2] = target: T2, human ICAM5 (human, UniProt Q9UMF0 32-924); assay: FACS on ICAM5-expressing BaF3 transfectant, anti-mouse IgG-FITC detection
T2 construct: also called ICAM5/BaF3 (cells that carry it)
T2 sequence: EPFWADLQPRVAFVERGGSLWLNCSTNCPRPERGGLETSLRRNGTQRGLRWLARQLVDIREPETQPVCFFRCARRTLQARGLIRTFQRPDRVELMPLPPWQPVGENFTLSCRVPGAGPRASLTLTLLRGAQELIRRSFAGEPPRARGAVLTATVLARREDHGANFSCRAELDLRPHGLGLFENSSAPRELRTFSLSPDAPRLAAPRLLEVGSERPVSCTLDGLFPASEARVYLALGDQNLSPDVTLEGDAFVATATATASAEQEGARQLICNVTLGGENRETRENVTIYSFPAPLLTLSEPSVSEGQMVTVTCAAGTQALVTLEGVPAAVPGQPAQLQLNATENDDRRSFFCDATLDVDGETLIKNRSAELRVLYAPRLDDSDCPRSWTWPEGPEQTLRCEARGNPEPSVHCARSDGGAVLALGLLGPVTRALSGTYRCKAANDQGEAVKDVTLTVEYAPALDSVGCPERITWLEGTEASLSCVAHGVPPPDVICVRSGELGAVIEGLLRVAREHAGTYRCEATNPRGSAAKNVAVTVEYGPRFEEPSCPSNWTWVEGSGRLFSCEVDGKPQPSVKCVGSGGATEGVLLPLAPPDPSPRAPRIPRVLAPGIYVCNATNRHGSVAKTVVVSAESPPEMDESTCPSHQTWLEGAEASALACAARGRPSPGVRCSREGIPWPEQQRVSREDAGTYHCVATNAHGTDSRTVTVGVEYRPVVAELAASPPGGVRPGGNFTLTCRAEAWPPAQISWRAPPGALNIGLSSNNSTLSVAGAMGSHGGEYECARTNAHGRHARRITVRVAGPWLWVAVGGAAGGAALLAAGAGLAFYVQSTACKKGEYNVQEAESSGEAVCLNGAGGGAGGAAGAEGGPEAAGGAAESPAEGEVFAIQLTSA
Method: as §1

T1 sequence (P05362 28-532 K469E limits assumed): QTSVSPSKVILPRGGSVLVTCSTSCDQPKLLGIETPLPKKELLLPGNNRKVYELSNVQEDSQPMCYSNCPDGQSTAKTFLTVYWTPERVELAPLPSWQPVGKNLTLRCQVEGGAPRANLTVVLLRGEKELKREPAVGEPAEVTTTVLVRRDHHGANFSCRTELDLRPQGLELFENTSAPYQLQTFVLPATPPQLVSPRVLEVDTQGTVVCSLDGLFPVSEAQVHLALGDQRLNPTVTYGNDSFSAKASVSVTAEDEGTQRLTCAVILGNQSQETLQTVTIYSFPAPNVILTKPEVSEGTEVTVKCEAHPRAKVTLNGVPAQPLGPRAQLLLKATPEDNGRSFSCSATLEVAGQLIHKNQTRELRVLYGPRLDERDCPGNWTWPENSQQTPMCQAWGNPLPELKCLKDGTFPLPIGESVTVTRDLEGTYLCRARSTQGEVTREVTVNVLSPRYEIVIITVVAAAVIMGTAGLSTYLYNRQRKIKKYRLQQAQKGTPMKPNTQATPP

B1: mouse monoclonal antibody IB23 (antibody, V domains shown)
VH: QVQLQQSGAELAKPGASVKMSCKASGYTFTTYWMHWVKQRPGQGLEWIGYINPNTDYTEYNQKFKDKATLTADKSSSTAFMQLSSLTSEDSAVYYCASSRDAYHGTYWGQGTLVTVSA
VL: DIVMTQSPATLSVTPGDRVSLSCRASQSISDYLHWYQQKSHESPRLLIRYASQSISGIPSRFSGSGSGSDFTLSINNVEPEDVGVYYCQNGHNFPLTFGAGTKLELK
notes: Mouse hybridoma antibody purified on Protein G and detected with anti-mouse IgG-FITC; also called IB23 antibody; mouse IB23 antibody
- binding result [1]: no binding (tested: 10 µg/ml)
- binding result [2]: no binding (tested: 10 µg/ml)
